In series [1] the target is T1, SeSSB (single-stranded DNA-binding protein, STM_4256) (Salmonella enterica, UniProt P0A2F6).
T1 construct: gene ssb; His-tagged SeSSB, 176 residues (pET21b-SeSSB)
Briefly: EMSA, inhibition of binding of purified SeSSB ([…]) to biotinylated ssDNA dT35.

Series [2] concerns the molecule itself. Briefly: SEC; purified SeSSB (5 mg/mL) on a Superdex 200 prep-grade column in 100 mM NaCl, 100 mM MES, pH 6.5; calibrated with standard proteins; native mass estimated 76641 Da; tetramer.
The target of series [3] is T2, SeSSB (single-stranded DNA-binding protein) (Salmonella enterica serovar Typhimurium …, UniProt P0A2F6 1-176). Briefly: EMSA; two complexes; SeSSB 0-4000 nM; dA EMSA: 20 mM Tris-HCl pH 8.0, 100 mM NaCl, 25 C, 30 min, 1.7 nM DNA; dT35 EMSA: 40 mM Tris-HCl pH 7.5, 50 mM NaCl, 37 C, 60 min, 30 fmol/uL DNA; 8% native PAGE in TBE. Conditions: protein: recombinant; tags: His-tag (pET21b); chain copies: 4; label: 5'-32P (T4 PNK); single strand.

Series [4] has as its target T2, SeSSB (single-stranded DNA-binding …). As to the kind of experiment: EMSA; single complex; SeSSB 0-4000 nM; dA EMSA: 20 mM Tris-HCl pH 8.0, 100 mM NaCl, 25 C, 30 min, 1.7 nM DNA; dT35 EMSA: 40 mM Tris-HCl pH 7.5, 50 mM NaCl, 37 C, 60 min, 30 fmol/uL DNA; 8% native PAGE in TBE. The note with it: protein: recombinant; tags: His-tag (pET21b); chain copies: 4; label: 5'-32P (T4 PNK); single strand. For orientation: A gel shift assay detects complexes by their altered migration in electrophoresis.

Series [5] has the same target. As to the kind of experiment: EMSA; 37 C, 40 mM Tris-HCl pH 7.5, 50 mM NaCl; protein at 50% bound; dA EMSA: 20 mM Tris-HCl pH 8.0, 100 mM NaCl, 25 C, 30 min, 1.7 nM DNA; dT35 EMSA: 40 mM Tris-HCl pH 7.5, 50 mM NaCl, 37 C, 60 min, 30 fmol/uL DNA; 8% native PAGE in TBE. Conditions: protein: recombinant; tags: His-tag (pET21b); chain copies: 4; label: biotin (5' per Methods 4.5; 3' per Results 2.5); single strand.

Series [6] has the same target. As to the kind of experiment: EMSA; two complexes at higher SeSSB (0-4000 nM); dA EMSA: 20 mM Tris-HCl pH 8.0, 100 mM NaCl, 25 C, 30 min, 1.7 nM DNA; dT35 EMSA: 40 mM Tris-HCl pH 7.5, 50 mM NaCl, 37 C, 60 min, 30 fmol/uL DNA; 8% native PAGE in TBE. The note with it: protein: recombinant; tags: His-tag (pET21b); chain copies: 4; label: 5'-32P (T4 PNK); single strand.

The text below walks through data of PMC9029707, “Crystal Structure of an SSB Protein from Salmonella enterica and Its Inhibition by Flavanonol Taxifolin” (International Journal of Molecular Sciences, 2022).

What is called IC50 is the midpoint of a concentration-inhibition curve. The low end stands for greater potency in that assay, the high end for weaker potency in that assay. `O=C1c2c(O)cc(O)cc2O[C@H](c2ccc(O)c(O)c2)[C@H]1O` [taxifolin]: the IC50 in series [1] amounted to 98 ± 12 µM.

B1: Single-stranded DNA-binding protein (SSB) from Salmonella enterica serovar Typhimurium LT2 (natural protein, UniProt P0A2F6 1-176, looked up)
chain: MASRGVNKVILVGNLGQDPEVRYMPSGGAVANLTLATSESWRDKQTGEMKEQTEWHRVVMFGKLAEVAGEYLRKGSQVYIEGQLRTRKWTDQSGQERYTTEINVPQIGGVMQMLGGRQGGGAPAGGQQQGGWGQPQQPQQPQGGNQFSGGAQSRPQQSAPAPSNEPPMDFDDDIPF
notes: SSB (STM_4256) of Salmonella enterica serovar Typhimurium LT2; monomer of 176 amino acid residues, ~19 kDa; residues 1-115 ordered and 116-176 disordered in the crystal; No removal of the tag is described; also called SeSSB; S. enterica SSB
The term stoichiometry N denotes the number of molecules, sites or subunits per partner or assembly. B1: the “stoichiometry N” value in series [2] was 4.

B2: dA50 (ssDNA)
DNA: AAAAAAAAAAAAAAAAAAAAAAAAAAAAAAAAAAAAAAAAAAAAAAAAAA
Turning to B2, the binding result in series [3] is given as “binds”.

B3: dA40 (ssDNA)
DNA: AAAAAAAAAAAAAAAAAAAAAAAAAAAAAAAAAAAAAAAA
Regarding B3, the binding result in series [4] was “binds”.

B4: dT35 (ssDNA)
DNA: TTTTTTTTTTTTTTTTTTTTTTTTTTTTTTTTTTT
Usually Kd stands for the equilibrium constant for the complex coming apart. For the molecule B4, in series [5], the Kd came out at 0.23 ± 0.02 µM.

B5: dA45 (ssDNA)
DNA: AAAAAAAAAAAAAAAAAAAAAAAAAAAAAAAAAAAAAAAAAAAAA
As for B5, the binding result in series [6] is on record as “binds”.

B6: dA35 (ssDNA)
DNA: AAAAAAAAAAAAAAAAAAAAAAAAAAAAAAAAAAA
Consider B6, for which the binding result in series [4] is given as “binds”.

B7: dA55 (ssDNA)
DNA: AAAAAAAAAAAAAAAAAAAAAAAAAAAAAAAAAAAAAAAAAAAAAAAAAAAAAAA
With B7, in series [3], the binding result is given as “binds”.
